{"source": "paper PMC4434323", "key": {"[1]": {"target": "T1, nhr-3 (H01A20.1) (Caenorhabditis elegans) (UniProt Q9XTJ4)", "T1 sequence": "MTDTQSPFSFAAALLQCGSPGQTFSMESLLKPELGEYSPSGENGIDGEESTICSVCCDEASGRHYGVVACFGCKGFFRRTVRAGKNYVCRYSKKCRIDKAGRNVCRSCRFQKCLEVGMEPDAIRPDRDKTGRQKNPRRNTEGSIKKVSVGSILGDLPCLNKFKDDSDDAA"}, "[2]": {"target": "nhr-34 (F58G6.5) (Caenorhabditis elegans) (UniProt Q21006)", "sequence (Q21006 99-268)": "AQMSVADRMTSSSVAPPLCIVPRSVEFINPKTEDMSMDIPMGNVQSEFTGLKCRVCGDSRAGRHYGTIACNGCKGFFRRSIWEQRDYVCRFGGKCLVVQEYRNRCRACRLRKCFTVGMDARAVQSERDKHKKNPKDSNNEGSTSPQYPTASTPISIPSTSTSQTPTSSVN"}, "[3]": {"target": "T2, nhr-46 (C45E5.6) (Caenorhabditis elegans) (UniProt Q95QR2)", "T2 sequence": "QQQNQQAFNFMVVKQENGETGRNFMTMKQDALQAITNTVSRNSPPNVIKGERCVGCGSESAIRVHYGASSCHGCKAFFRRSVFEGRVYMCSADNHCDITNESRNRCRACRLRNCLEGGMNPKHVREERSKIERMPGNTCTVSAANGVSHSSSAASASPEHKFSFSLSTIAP"}, "[4]": {"target": "T3, unc-120 (D1081.2) (Caenorhabditis elegans) (UniProt Q18955)", "T3 sequence": "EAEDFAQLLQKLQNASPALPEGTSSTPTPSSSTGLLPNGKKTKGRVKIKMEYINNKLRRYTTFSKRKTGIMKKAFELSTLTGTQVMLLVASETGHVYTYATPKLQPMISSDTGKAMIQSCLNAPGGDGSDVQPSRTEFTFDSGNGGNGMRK"}, "[5]": {"target": "T4, nhr-42 (C33G8.6) (Caenorhabditis elegans) (UniProt O76828)", "T4 sequence": "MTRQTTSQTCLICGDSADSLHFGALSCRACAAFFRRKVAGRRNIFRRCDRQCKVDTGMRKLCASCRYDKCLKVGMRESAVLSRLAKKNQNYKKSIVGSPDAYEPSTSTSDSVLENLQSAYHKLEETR"}, "[6]": {"target": "T5, daf-12 (F11A1.3) (Caenorhabditis elegans) (UniProt G5EFF5)", "T5 sequence": "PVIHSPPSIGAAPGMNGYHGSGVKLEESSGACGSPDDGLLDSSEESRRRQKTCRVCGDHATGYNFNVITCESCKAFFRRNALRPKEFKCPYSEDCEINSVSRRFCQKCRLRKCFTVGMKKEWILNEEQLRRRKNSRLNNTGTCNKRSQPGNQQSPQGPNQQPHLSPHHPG"}, "[7]": {"target": "T6, atf-6 (F45E6.2) (Caenorhabditis elegans) (UniProt Q20435)", "T6 sequence": "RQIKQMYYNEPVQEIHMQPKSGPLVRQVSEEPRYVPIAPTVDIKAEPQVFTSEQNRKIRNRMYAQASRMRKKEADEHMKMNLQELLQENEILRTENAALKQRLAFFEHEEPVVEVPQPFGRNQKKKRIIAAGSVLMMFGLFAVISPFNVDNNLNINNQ"}, "[8]": {"target": "T7, atf-5 (T04C10.4) (Caenorhabditis elegans) (UniProt Q22156)", "T7 sequence": "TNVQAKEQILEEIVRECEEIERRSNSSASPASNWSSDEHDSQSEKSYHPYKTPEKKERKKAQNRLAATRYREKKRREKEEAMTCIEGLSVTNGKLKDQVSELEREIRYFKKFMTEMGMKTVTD"}, "[9]": {"target": "atf-7 (C07G2.2) (Caenorhabditis elegans) (UniProt Q86MD3)", "sequence (Q86MD3 339-508)": "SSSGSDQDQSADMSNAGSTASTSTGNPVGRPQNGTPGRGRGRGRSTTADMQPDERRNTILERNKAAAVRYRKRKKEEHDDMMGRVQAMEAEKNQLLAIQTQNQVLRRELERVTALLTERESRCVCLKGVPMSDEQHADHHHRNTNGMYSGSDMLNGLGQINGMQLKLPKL"}, "[10]": {"target": "T8, nhr-142 (F44E7.8) (Caenorhabditis elegans) (UniProt J7SF93)", "T8 sequence": "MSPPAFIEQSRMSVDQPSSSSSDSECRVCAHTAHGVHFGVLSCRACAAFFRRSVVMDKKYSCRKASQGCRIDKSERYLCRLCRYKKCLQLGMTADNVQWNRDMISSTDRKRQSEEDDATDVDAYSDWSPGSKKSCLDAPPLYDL"}, "[11]": {"target": "T9, end-1 (F58E10.2) (Caenorhabditis elegans) (UniProt G5EDN4)", "T9 sequence": "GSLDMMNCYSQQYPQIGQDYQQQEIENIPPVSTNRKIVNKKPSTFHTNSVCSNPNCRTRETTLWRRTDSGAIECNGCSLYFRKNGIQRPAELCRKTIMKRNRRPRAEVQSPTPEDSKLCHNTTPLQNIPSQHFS"}, "[12]": {"target": "T10, ceh-34 (C10G8.6) (Caenorhabditis elegans) (UniProt Q94165)", "T10 sequence": "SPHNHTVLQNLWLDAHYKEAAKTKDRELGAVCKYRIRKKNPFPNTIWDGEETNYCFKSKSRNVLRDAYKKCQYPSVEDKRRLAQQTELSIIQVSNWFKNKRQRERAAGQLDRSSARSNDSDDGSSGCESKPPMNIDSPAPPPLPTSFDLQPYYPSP"}}, "data": [{"sequence": "GAGATCAA (double strand) [8-mer GAGATCAA]", "values": [{"measurement": "binding signal (PBM E-score (-0.5 to 0.5))", "setting": "[1]", "result": 0.46}, {"measurement": "binding signal (PBM E-score (-0.5 to 0.5))", "setting": "[2]", "result": 0.491}, {"measurement": "binding signal (PBM E-score (-0.5 to 0.5))", "setting": "[3]", "result": 0.495}]}, {"sequence": "CATATATG (double strand) [8-mer CATATATG]", "values": [{"measurement": "binding signal (PBM E-score (-0.5 to 0.5))", "setting": "[4]", "result": 0.468}]}, {"sequence": "GAGACCAA (double strand) [8-mer GAGACCAA]", "values": [{"measurement": "binding signal (PBM E-score (-0.5 to 0.5))", "setting": "[2]", "result": 0.475}]}, {"sequence": "ACTACGAA (double strand) [8-mer ACTACGAA]", "values": [{"measurement": "binding signal (PBM E-score (-0.5 to 0.5))", "setting": "[5]", "result": 0.486}]}, {"sequence": "TAAGATCA (double strand) [8-mer TAAGATCA]", "values": [{"measurement": "binding signal (PBM E-score (-0.5 to 0.5))", "setting": "[1]", "result": 0.477}, {"measurement": "binding signal (PBM E-score (-0.5 to 0.5))", "setting": "[3]", "result": 0.474}]}, {"sequence": "GAAGATCA (double strand) [8-mer GAAGATCA]", "values": [{"measurement": "binding signal (PBM E-score (-0.5 to 0.5))", "setting": "[2]", "result": 0.466}, {"measurement": "binding signal (PBM E-score (-0.5 to 0.5))", "setting": "[3]", "result": 0.466}]}, {"sequence": "AGATCAAC (double strand) [8-mer AGATCAAC]", "values": [{"measurement": "binding signal (PBM E-score (-0.5 to 0.5))", "setting": "[1]", "result": 0.467}, {"measurement": "binding signal (PBM E-score (-0.5 to 0.5))", "setting": "[2]", "result": 0.478}, {"measurement": "binding signal (PBM E-score (-0.5 to 0.5))", "setting": "[3]", "result": 0.483}]}, {"sequence": "ATAGATCA (double strand) [8-mer ATAGATCA]", "values": [{"measurement": "binding signal (PBM E-score (-0.5 to 0.5))", "setting": "[1]", "result": 0.466}]}, {"sequence": "CATATAAG (double strand) [8-mer CATATAAG]", "values": [{"measurement": "binding signal (PBM E-score (-0.5 to 0.5))", "setting": "[4]", "result": 0.466}]}, {"sequence": "TAAGTACA (double strand) [8-mer TAAGTACA]", "values": [{"measurement": "binding signal (PBM E-score (-0.5 to 0.5))", "setting": "[6]", "result": 0.492}]}, {"sequence": "ACTACGAT (double strand) [8-mer ACTACGAT]", "values": [{"measurement": "binding signal (PBM E-score (-0.5 to 0.5))", "setting": "[5]", "result": 0.482}]}, {"sequence": "ACGTCAGC (double strand) [8-mer ACGTCAGC]", "values": [{"measurement": "binding signal (PBM E-score (-0.5 to 0.5))", "setting": "[7]", "result": 0.469}, {"measurement": "binding signal (PBM E-score (-0.5 to 0.5))", "setting": "[8]", "result": 0.491}]}, {"sequence": "AATGACGT (double strand) [8-mer AATGACGT]", "values": [{"measurement": "binding signal (PBM E-score (-0.5 to 0.5))", "setting": "[9]", "result": 0.497}, {"measurement": "binding signal (PBM E-score (-0.5 to 0.5))", "setting": "[8]", "result": 0.459}]}, {"sequence": "AAATATGG (double strand) [8-mer AAATATGG]", "values": [{"measurement": "binding signal (PBM E-score (-0.5 to 0.5))", "setting": "[4]", "result": 0.474}]}, {"sequence": "CCATATAA (double strand) [8-mer CCATATAA]", "values": [{"measurement": "binding signal (PBM E-score (-0.5 to 0.5))", "setting": "[4]", "result": 0.465}]}, {"sequence": "GACTACGC (double strand) [8-mer GACTACGC]", "values": [{"measurement": "binding signal (PBM E-score (-0.5 to 0.5))", "setting": "[5]", "result": 0.484}]}, {"sequence": "AAGTACAA (double strand) [8-mer AAGTACAA]", "values": [{"measurement": "binding signal (PBM E-score (-0.5 to 0.5))", "setting": "[6]", "result": 0.493}]}, {"sequence": "AGACTACG (double strand) [8-mer AGACTACG]", "values": [{"measurement": "binding signal (PBM E-score (-0.5 to 0.5))", "setting": "[5]", "result": 0.492}]}, {"sequence": "AAAGTGCA (double strand) [8-mer AAAGTGCA]", "values": [{"measurement": "binding signal (PBM E-score (-0.5 to 0.5))", "setting": "[6]", "result": 0.498}]}, {"sequence": "GTCATAAA (double strand) [8-mer GTCATAAA]", "values": [{"measurement": "binding signal (PBM E-score (-0.5 to 0.5))", "setting": "[10]", "result": 0.484}]}, {"sequence": "AAGTGCAT (double strand) [8-mer AAGTGCAT]", "values": [{"measurement": "binding signal (PBM E-score (-0.5 to 0.5))", "setting": "[6]", "result": 0.495}]}, {"sequence": "AGATCAAG (double strand) [8-mer AGATCAAG]", "values": [{"measurement": "binding signal (PBM E-score (-0.5 to 0.5))", "setting": "[3]", "result": 0.466}]}, {"sequence": "AGTCACAT (double strand) [8-mer AGTCACAT]", "values": [{"measurement": "binding signal (PBM E-score (-0.5 to 0.5))", "setting": "[5]", "result": 0.481}]}, {"sequence": "AAGTGCAA (double strand) [8-mer AAGTGCAA]", "values": [{"measurement": "binding signal (PBM E-score (-0.5 to 0.5))", "setting": "[6]", "result": 0.496}]}, {"sequence": "ATATATGG (double strand) [8-mer ATATATGG]", "values": [{"measurement": "binding signal (PBM E-score (-0.5 to 0.5))", "setting": "[4]", "result": 0.486}]}, {"sequence": "CTGACGTA (double strand) [8-mer CTGACGTA]", "values": [{"measurement": "binding signal (PBM E-score (-0.5 to 0.5))", "setting": "[7]", "result": 0.474}, {"measurement": "binding signal (PBM E-score (-0.5 to 0.5))", "setting": "[8]", "result": 0.455}]}, {"sequence": "ACACTACG (double strand) [8-mer ACACTACG]", "values": [{"measurement": "binding signal (PBM E-score (-0.5 to 0.5))", "setting": "[5]", "result": 0.493}]}, {"sequence": "CACTACGA (double strand) [8-mer CACTACGA]", "values": [{"measurement": "binding signal (PBM E-score (-0.5 to 0.5))", "setting": "[5]", "result": 0.485}]}, {"sequence": "TGATATCA (double strand) [8-mer TGATATCA]", "values": [{"measurement": "binding signal (PBM E-score (-0.5 to 0.5))", "setting": "[11]", "result": 0.493}, {"measurement": "binding signal (PBM E-score (-0.5 to 0.5))", "setting": "[12]", "result": 0.483}, {"measurement": "binding signal (PBM E-score (-0.5 to 0.5))", "setting": "[8]", "result": 0.474}]}, {"sequence": "CGTAGTCA (double strand) [8-mer CGTAGTCA]", "values": [{"measurement": "binding signal (PBM E-score (-0.5 to 0.5))", "setting": "[5]", "result": 0.48}]}, {"sequence": "AGATCAAA (double strand) [8-mer AGATCAAA]", "values": [{"measurement": "binding signal (PBM E-score (-0.5 to 0.5))", "setting": "[3]", "result": 0.473}]}]}
